Positions count from the first letter of the chain named.

The target of one experiment is T1, mAREG-EGFd-mFc (mouse, UniProt P31955 135-177).
T1 construct: also called EGF domain of mAREG (aa135-177) fused with mFc tag; not shown: mFc tag (Fc fragment of mouse IgG2a as for hAREG-EGFd-mFc)
T1 chain: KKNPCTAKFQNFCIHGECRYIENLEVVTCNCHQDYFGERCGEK
The experiment is described as follows: SPR (Biacore T200). (In general: In SPR one partner is held on a chip, and binding of the other changes the refractive index at the surface.)

The target of a further experiment is T2, hAREG-H164N variant (human, UniProt P15514 142-184).
T2 construct: also called H164N variant of hAREG-EGFd
T2 chain: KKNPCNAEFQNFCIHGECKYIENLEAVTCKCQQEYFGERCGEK
The experiment is described as follows: SPR (Biacore T200).

The target of a further experiment is T3, hAREG-E149K variant (human, UniProt P15514 142-184).
T3 construct: also called E149K variant of hAREG-EGFd
T3 chain: T2 chain with E8K, N23H
The experiment is described as follows: SPR (Biacore T200).

For a further experiment, the target named is T4, mAREG-N164H variant (mouse, UniProt P31955 135-177, limits assumed).
T4 construct: Position is in hAREG numbering
T4 chain: T1 chain with N23H
Put plainly: SPR (Biacore T200).

The target in another experiment is T5, hAREG-EGFd-mFc (human; mouse, UniProt P15514 142-184).
T5 construct: Expressed in 293F cells; not shown: Fc fragment of mouse IgG2a
T5 chain: T2 chain with N23H
The experiment is described as follows: SPR, Biacore T200; mAb captured on anti-human Fc chip, antigen in solution. How it is done:
(§1) To evaluate affinities of different mouse hybridoma mAbs or their humanized and engineered variants, SPR measurement was performed using Biacore T200 instrument. mAbs were captured on anti-human Fc CM5 biosensor chip surface, hAREG-EGFd-mFc, mAREG-EGFd-mFc or hAREG-98aa (purchased from PeproTech, cat #100-55B) in serial dilutions were injected over antibody-bound surface, followed by a dissociation phase. Association rates (Ka) and dissociation rates (Kd) were calculated using the one-to-one Langmuir binding model (BIA Evaluation Software, GE Life Sciences). The equilibrium dissociation constant (KD) was calculated as the ratio kd/ka.

The target in the next experiment is T6, hAREG-98aa (human, UniProt P15514 101-198).
T6 construct: Bought protein
T6 sequence (looked up): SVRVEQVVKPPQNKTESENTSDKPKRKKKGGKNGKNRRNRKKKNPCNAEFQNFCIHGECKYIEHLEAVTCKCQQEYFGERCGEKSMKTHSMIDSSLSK
The description is as above. The method, then:
as §1

B1: hu9C12v6 (antibody, V domains shown)
VH: EVQLVESGGGLVKPGGSLRLSCAASGFTFSSYPMSWVRQAPEKGLEWVSTISTGGTYTYYPDSVKGRFTISRDNAKNSLYLQMNSLRAEDTAVYYCARQGPIYYGNYYYGMDVWGQGTTVTVSS
VL: DVVMTQSPLSLPVTLGDPASISCRSSQSLVNQEGETYLHWYQQRPGQSPKLLIYKVSNRFDGVPDRFSGSGSGTDFTLKISRVEAEDVGVYYCSQSTHVPYTFGQGTKLEIK
notes: Humanized 9C12 variant
Consider B1, for which the binding result is reported as “no binding” in the experiment with mAREG-EGFd-mFc, “no binding” in the experiment with hAREG-H164N variant, “binds” with hAREG-E149K variant and “binds” with mAREG-N164H variant. Further, the Kd (as a rule, the constant that tells how readily two partners part at equilibrium) in the experiment with hAREG-EGFd-mFc came to 0.398 nM; in the experiment with hAREG-98aa, 0.188 nM. Besides, the koff – broadly, the first-order rate constant of dissociation – with hAREG-EGFd-mFc turned out to be 0.000389 s⁻¹; in the experiment with hAREG-98aa, 0.00457 s⁻¹. For the same molecule, the kon (usually the second-order rate constant of association) was 978000 M⁻¹ s⁻¹ with hAREG-EGFd-mFc and 2.43e+07 M⁻¹ s⁻¹ with hAREG-98aa.

Values taken from patent US20230041071A1 (NATIONAL INSTITUTE OF BIOLOGICAL SCIENCES BEIJING, published 2023).
